Assay results: a protein production outcome set (Wang et al. 2014)
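Note: failed if final PepcDB status was selected cloned or expressed and not failed if soluble or beyond.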

Experiment: label from the status in PepcDB records
With “MEKGTLVEFRVQGDRRLGVVDRPDGKTRWFVVDERGQSHSLAPRQITYTVNGNTYKPSEIDRFLEEVKPYLDPSSLEVAWELLVEDGETVTPSQMANLLFSESNSAPSYAAHCLLSDDKLYFKQKGDAYEPRTAAQVADRKHQIEVEALKARGQQEFLTRVEQALQGEAVEWQRHDRQRLEGLEKYGTLLADIVKVGLNYDSLARAYPPPAPVLETMNMLGRPATPQGAFQLLVDLGWWSATENLFLRRSSIPVQFPSKVLEVAQQRLDFPPTDLDTNRLDLTHLKVYTVDDESTTEIDDGLSWEKLPDDRERLWVHIADPTRYLAPEDDLDLEARKRGSTVYLPTGMIPMFPEVLATGPMSLVQGRVCCALSFGVVLDGTGAVQDFTIHPSLIKPTYRLTYEDVDEMLELGVQAEPEIAAIATWATKRKSWRYNQGAISINMPEAMIKVKNDDISIDILDDSRSRQLVAEMMILAGEVAARYGQVHNIPLPFRGQPQPELPPEDELLRLPAGFVRACAMRRCMPKSEMSITPVRHAGLGLDTYTQATSPIRRYSDLLTHFQLKAHLRGEVPPFTAEELKEVMMTVTSTTQELTMVERQTNRYWALEYLRRHPEEIWQVTVLMWLREDSNLALILLEDLGLQLPMVFKRSVRLGEQVLVKVSISDPQKDVIQFQEIIYQEAQTAAN” the protein production was “failed”.
For “MEKGVGFEKDMKTVSDGFVGGFFPVSTTKIAWKSRKRSALLNLDKAPEAVTEVTPEKNEITAMDTEKVGEPMTTTPLLSEKRKALFEPLEPITNLNGKRPTAADSLLPPPDFETANYPKGWLIGKKRKLVNVDVVESMRRIAVQEMNRKDREIDGLNEQLEEDSRCLEHLQLQLLQERSKRTEIERENTMLKEQVDMLVNMIQEDDEEGAEEP”, the protein production was “failed”.
For “MEKISDLIECIAYEKNLPKEMISKVIQGCLLKMAQNELDPLARYLVVEENKQLQLIQLVEVLEDGDERLVNDPSKYISLSKAKEMDPSVKIKDELSYSLSLESMKQGAINRLFKDLQYQLEKALEDSHFEAFQKRLNSVLMGQVILVDHNQNTFIEIEQQFQGVLSMRHRIKGESFKVGDSIKAVLTQVKRTKKGLLLELSRTTPKMLEALLELEVPEIKDKEIEIIHCARIPGNRAKVSFFSHNARIDPIGAAVGVKGVRINAISNELNKENIDCIEYSNVPEIYITLALAPAKILSVEIKKIPIEELNAEEKESIQERFIVNNHLQKAKVRLLDIEKSKAIGKGGVNVCLASMLTGYHIEFETIPSVKENAENESEKETPKVGVEALESLFKNLEHHHHHH”, the protein production was “not failed”.
For “MEKKIVYFNKPGRENTEETLRLAVERAKELGIKHLVVASSYGDTAMKALEMAEGLEVVVVTYHTGFVREGENTMPPEVEEELRKRGAKIVRQSHILSGLERSISRKLGGVSRTEAIAEALRSLFGHGLKVCVEITIMAADSGAIPIEEVVAVGGRSRGADTAVVIRPAHMNNFFDAEIKEIICMPRNKR”, the protein production was “not failed”.
For “MEKKVHYKMYKAGKKWVFVMLSTVALTGIMVMSGNIAKADAVAQSSTEQVAKIDTTSATTTSTQATAQVEKATNNVNESNAAQTSATTTTEQSSVNAGATSSSQNNKQATTTSVAASQNTSVANKDQVSSTQSSTTQNSEEPKVETPVNTADNASQKNVNGNWYLVDNNTGKNLTGFQEIKYQNKVVYYAPSNAQMQYGWQDINNNRYYFDTFDGAMTTGQKNINGNWYMFDAQGVLQTGFQRIESQNKTVYYSEDKDKLGQMQYGQKNIKGNWYNFDTYDGAMKTGFVTIPSQNKTVYYSEDKAKLGQMQYGKTKVNGKTYYFDTYDGAMKKGLTNINGNYYYFDNSGVMATNQKNINGNWYMFNDQGIMQTGFVHIPSQGKTVYYSKDKDKLGQMLYGQKNINGRWYNFDTYDGAMKTGFVYIPSQNKTVYYDENQSTLGQMKYGFQNINGKTYYLDTFDGSMKTGQKNINGNWYMFDDKGVMKVGFVTIPSQNKTVYYSEDKAKLGQMQYGKTGIKGKTYYFDTFDGAMKTGVFYNKETGTLQYYGNNGQMNYGNVVINGKVYAFDAAGNYLGKGNVTIDGHDYYLGNNNQVLVGFQKISNNTYYYNKDNGQKEYGQKNIDGSWYMFDDKTGIMKTGFVTIPSQNKTVYYGNNGQMQYGQRNIDGHWYMFDTYNGAMKTGLVYIPEQNKTVYYGSNGQMQYGVFRVGKITYTADHISGAIIGVYNDAEVIGQNPELPTGCEITAVTMMLRYAGANINKIQLANEMPRSNNGDYGFVGNPFSVTGWWVFPTGVAPVVNKHLGHSQVMTGASLESIKNKLLNGHLVVAWVANMNGFVNHAIALTGYNGNTLYYNNPWTARKESMSVSSFYTHWNADKQRALSY”, the protein production was “failed”.
With “MEKLKSLIPEDLLQTVKSSSVDDLLSTSSSLLRLFLGLPQFHQAVSELANPELGCCGKNEETSLDLKRRGNHCFRSRDFDEALRLYSKALRVAPLDAIDGDKSLLASLFLNRANVLHNLGLLKESLRDCHRALRIDPYYAKAWYRRGKLNTLLGNYKDAFRDITVSMSLESSLVGKKQLQNELKAIPDYQNNQTLEHDEYRPSNDAGVDHLPSVQMEVKLRCVSTKEKGRGMVSECDIEEASVIHVEEPFSVVISKSCRETHCHFCLNELPADTVPCPSCSIPVYCSESCQIQSGGMLSTNEMDKHHIFQKLPDDIVEHIKGVTSADIYYFATDLIQEHQHECRGANWPAVLPSDAVLAGRIIMKLINQGKAATDLSNLQEILELSHTYSKMNPENKLELHLLSIVLIWCLSKSSCPNLSVCEASVTQTIILLSQIKVNSIAVARMKSSGDSFKCLPSGNISTKEPIQSLEQIRVGQALYKTGSLFNHSCKPNIHLYFLSRGLIMQTTEFVPTGCPLELSYGPEVGKWDCKNRIRFLEEEYFFHCRCRGCAQINISDLVINGYGCVNTNCTGVVLDSNVATCESEKLNHFFTAPRNVDQQVQMREKVYADVGEVASSLLSKPSGSLHIEPEICLKCGSRCDIENSHAEVNKAWNHMRRVEELMNSGRANYSVLSDCSRSIAVLRTFLHMYNKDIADAEDKVAQACYLAGELVDARKHCEASIKILKRLYEDEHVVIGNEMVKLASIQLASGDSSGAWDTTKRSSQIFSKYYGSHAETLFSYLPCLKQETAKAVNLSTS” the protein production was “failed”.
For “MEKLSAIKKPDINVADAWEQYWNKTLVNSTPVLWDANVERAVVVDLPRFELLFNPELPLIDFACGNGTQTKFLSQFFPRVIGLDVSKSALEIAAKENTAANISYRLLDGLVPEQAAQIHSEIGDANIYMRTGFHHIPVEKRELLGQSLRILLGKQGAMYLIELGTGCIDFFNSLLEKYGQLPYELLLVMEHGIRPGIFTAEDIELYFPDFEILSQGEGLFQSIHKLPDGNYATPPAFWAVIKHR”, the protein production was “not failed”.
With “MEKLVLGIIGIFFVISGFDYINNNKLGLGDKFKEGMISMGSIAISMVGIYSLSPLIGEGIGFLLTPISNFLGIDSSIFPSMFLAVDMGALGIAESLSSNIHMYWISGVIIASTLGATISFSIPLALGIIEEKYLEDLTTGLLYGIMTLPIAPIVAGLFLGVDIKLLLFNILPLIIFAILLAVFMNKFKDTTVKFFIKLGKLIQLVSILGLLVLGFLSIIGIKPIGSILPIDEALSVVGKIAIFLGGAYPLINFITEKFSKVLSKIGEKINIDEFSIAAFLGTLASNIILFQSFNKMSSKGRIALTAFSVSGAFVIGGQLGFVSLKTPEIINIYIASKLIAGITAMVVALIVHRKTEENLNDESQSEENIPVLES” the protein production was “failed”.
In the case of “MEKPIKTQWQLLMDNRNRFFWLLQAGGWIGYALVNYIGSLMHEMRDIYTLIIILGAYAGFLSTIPLRYLYRRIWEFPPALMVLIAIVVSYVTAVAWAIVDNATYWEIYKFGFRPDSPFFYLKNSLAKFYIILSWSGLYFGIKYYQMLQEEKQKALLASSMAHQAQLKMLRYQLNPHFLFNTLNAISTLILLKENEKANLMVNKLSHFLRFSLDNEPIKKVTLEKEVDALLLYLDIEKVRFDEQLEIDIHLSDETKNALVPSLICQPLIENSIKYAISNVEGVGKIRVRSWSEKENLILEVCDNGPKIETDPEKLFRKDGVGLNNTRQRLKSLYGKQYRFEMLKGAESGLCVRITIPMEMLESQR”, the protein production was “failed”.
In the case of “MEKRFYILTIVVEDREKAYRQVNELLHNFSEDILLRVGYPVREENMAIIFLVLKTDNDTIGALSGKLGQISGVRVKTVPLKR”, the protein production was “not failed”.
For “MEKYFGNAYRGDPGVPHADADRFVNIWIGSAAFSVLTWVNPYMWQLSNQFKYFSLSLSLELSNSNLGTFGFSCLISELGFLFMCFCSSLNCSGENYVLILLV”, the protein production was “failed”.
For “MEKYILSIDQGTTSSRAILFNQKGEIAGVAQREFKQYFPQSGWVEHDANEIWTSVLAVMTEVINENDVRADQIAGIGITNQRETTVVWDKHTGRPIYHAIVWQSRQTQSICSELKQQGYEQTFRDKTGLLLDPYFAGTKVKWILDNVEGAREKAENGDLLFGTIDTWLVWKLSGKAAHITDYSNASRTLMFNIHDLEWDDELLELLTVPKNMLPEVKASSEVYGKTIDYHFYGQEVPIAGVAGDQQAALFGQACFERGDVKNTYGTGGFMLMNTGDKAVKSESGLLTTIAYGIDGKVNYALEGSIFVSGSAIQWLRDGLRMINSAPQSESYATRVDSTEGVYVVPAFVGLGTPYWDSEARGAIFGLTRGTEKEHFIRATLESLCYQTRDVMEAMSKDSGIDVQSLRVDGGAVKNNFIMQFQADIVNTSVERPEIQETTALGAAFLAGLAVGFWESKDDIAKNWKLEEKFDPKMDEGEREKLYRGWKKAVEATQVFKTE”, the protein production was “failed”.
In the case of “MELAVGNLSEGNASCPEPPAPEPGPLFGIGVENFVTLVVFGLIFALGVLGNSLVITVLARSKPGKPRSTTNLFILNLSIADLAYLLFCIPFQATVYALPTWVLGAFICKFIHYFFTVSMLVSIFTLAAMSVDRYVAIVHSRRSSSLRVSRNALLGVGCIWALSIAMASPVAYHQGLFHPRASNQTFCWEQWPDPRHKKAYVVCTFVFGYLLPLLLICFCYAKVLNHLHKKLKNMSKKSEASKKKTAQTVLVVVVVFGISWLPHHIIHLWAEFGVFPLTPASFLFRITAHCLAYSNSSVNPIIYAFLSENFRKAYKQVFKCHIRKDSHLSDTKENKSRIDTPPSTNCTHV”, the protein production was “failed”.
With “MELDMGKVITAKRKEKSWTQEQLAQAVGVSTPAVSKWETGATYPDITLLPPIARALNTTVDELFSYQNELSDNDVSGFTQKATSLYEAEGFDAGWNYCQKLLQEFPNSIPLKFYLGNLFQSFMIMKTDLGKEDIQSCYRQAAILYEEVLLSGYPKFTYHATLILVGFYTMLNELDRAEELLDSLPKLKTDPDFLYPSIYALRGKNEEAMKLTQENIRRYISRVSHGLSLLGAFAREQEDMDKACTLAKMNLEITKLLGISREIAYADMIKIMVARGDKEAALTYLEEYTQHILELSYDYAKSPVFNRVTEKFQDPSYVKKVLAQSILIDKEYTPLKEEPRYLQIVHRLRQVIDTQTHTFRE” the protein production was “failed”.
In the case of “MELENIVANTVLLKAREGGGGNRKGKSKKWRQMLQFPHISQCEELRLSLERDYHSLCERQPIGRLLFREFCATRPELSRCVAFLDGVAEYEVTPDDKRKACGRQLTQNFLSHTGPDLIPEVPRQLVTNCTQRLEQGPCKDLFQELTRLTHEYLSVAPFADYLDSIYFNRFLQWKWLERQPVTKNTFRQYRVLGKGGFGEVCACQVRATGKMYACKKLEKKRIKKRKGEAMALNEKQILEKVNSRFVVSLAYAYETKDALCLVLTLMNGGDLKFHIYHMGQAGFPEARAVFYAAEICCGLEDLHRERIVYRDLKPENILLDDHGHIRISDLGLAVHVPEGQTIKGRVGTVGYMAPEVVKNERYTFSPDWWALGCLLYEMIAGQSPFQQRKKKIKREEVERLVKEVPEEYSERFSPQARSLCSQLLCKDPAERLGCRGGSAREVKEHPLFKKLNFKRLGAGMLEPPFKPDPQAIYCKDVLDIEQFSTVKGVELEPTDQDFYQKFATGSVPIPWQNEMVETECFQELNVFGLDGSVPPDLDWKGQPPAPPKKGLLQRLFSRQDCCGNCSDSEEELPTRL”, the protein production was “failed”.
For “MELKILVTGGNVFVPGRLNAHFSTVVYLEHKDRRIIIDPGNLSSMDELEEKFSELGISPDDITDVLFTHVHLDHIFNSVLFENATFYVHEVYKTKNYLSFGTIVGRIYSKVISSWKNVVLLKGEESLFDEKVKVFHTPWHAREHLSFLLDTENAGRVLITGDITPNRLSYYDIIKGYGSVQVKNFLDRVGRIDLLVFPHDAPLKPEVKK”, the protein production was “not failed”.
